Source: US20240294632A1 (XL PROTEIN, published 2024)

T1: PASylated Thymosin alpha 1
T1 construct: also called PASylated Tα1
T1 chain: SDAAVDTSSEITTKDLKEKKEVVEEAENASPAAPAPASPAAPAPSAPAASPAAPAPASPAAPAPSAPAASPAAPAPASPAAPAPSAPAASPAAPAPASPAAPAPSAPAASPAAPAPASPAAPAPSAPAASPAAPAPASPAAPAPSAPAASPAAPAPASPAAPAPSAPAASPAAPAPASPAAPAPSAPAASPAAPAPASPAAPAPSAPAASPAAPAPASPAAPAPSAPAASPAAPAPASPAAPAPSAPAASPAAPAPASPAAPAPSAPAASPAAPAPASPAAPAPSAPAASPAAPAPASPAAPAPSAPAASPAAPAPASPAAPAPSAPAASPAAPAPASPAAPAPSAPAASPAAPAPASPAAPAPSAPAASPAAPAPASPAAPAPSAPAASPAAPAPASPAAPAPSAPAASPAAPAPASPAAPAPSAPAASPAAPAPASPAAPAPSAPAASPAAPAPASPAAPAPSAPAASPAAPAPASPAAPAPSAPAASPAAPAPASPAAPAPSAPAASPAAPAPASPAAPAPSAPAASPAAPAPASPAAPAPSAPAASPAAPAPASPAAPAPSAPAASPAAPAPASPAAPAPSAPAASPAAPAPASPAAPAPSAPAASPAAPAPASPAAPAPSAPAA

T2: P/A #1 sequence
T2 construct: in sentences on specificity it stands for P/A #1 polypeptides in general
T2 peptide: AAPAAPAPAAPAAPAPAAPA


Assays:
P/A #1(200)-IL1Ra [1] = biological target: T3, P/A #1(200)-IL1Ra; assay: Western blot of the fusion protein after SDS-PAGE; anti-mouse IgG Fc-AP, BCIP/NBT [G]
T3 construct: PASylated fusion protein produced in E. coli; Biotinylated for the SPR measurements with Fabs
T3 sequence (chain, as listed by the source limits assumed): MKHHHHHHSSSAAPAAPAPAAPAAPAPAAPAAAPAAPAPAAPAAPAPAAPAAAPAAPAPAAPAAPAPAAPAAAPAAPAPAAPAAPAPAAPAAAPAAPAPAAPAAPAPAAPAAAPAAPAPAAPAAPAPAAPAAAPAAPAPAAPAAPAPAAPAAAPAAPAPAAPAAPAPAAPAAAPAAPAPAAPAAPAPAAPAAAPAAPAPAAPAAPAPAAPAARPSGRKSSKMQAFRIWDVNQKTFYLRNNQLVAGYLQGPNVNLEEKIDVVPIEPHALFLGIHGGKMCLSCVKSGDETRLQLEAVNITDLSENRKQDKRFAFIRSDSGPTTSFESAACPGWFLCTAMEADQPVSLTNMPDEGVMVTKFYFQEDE

hu4D5-PAS #1(200) [2] = biological target: T4, hu4D5-PAS #1(200); assay: MAb capture ELISA, hybridoma supernatant on anti-mouse IgG Fc, antigen titrated
T4 construct: Detected with anti-human kappa light chain antibody in the capture ELISA

PAS #1(200)-IL1Ra = biological target: T5, PAS #1(200)-IL1Ra; assay: SPR, MAb from hybridoma supernatant captured by anti-mouse antibody, antigen as analyte, bivalent analyte model
T5 construct: PASylated fusion protein produced in E. coli; Biotinylated for the SPR measurements with Fabs
T5 sequence (chain, as listed by the source limits assumed): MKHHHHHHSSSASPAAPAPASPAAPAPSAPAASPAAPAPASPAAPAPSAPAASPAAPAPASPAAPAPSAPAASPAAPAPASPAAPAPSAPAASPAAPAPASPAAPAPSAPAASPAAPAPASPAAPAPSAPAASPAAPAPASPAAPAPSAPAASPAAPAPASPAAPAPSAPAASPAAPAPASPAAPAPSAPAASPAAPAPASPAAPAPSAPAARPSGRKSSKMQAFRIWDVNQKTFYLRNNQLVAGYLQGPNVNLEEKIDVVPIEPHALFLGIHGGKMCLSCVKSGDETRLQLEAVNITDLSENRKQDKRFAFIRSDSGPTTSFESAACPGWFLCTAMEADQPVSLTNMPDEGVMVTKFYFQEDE

[3] = biological target: T1, PASylated Thymosin alpha 1; assay: sandwich ELISA in diluted rat plasma: MAb 2.1 coated as capture antibody, MAb 1.2-alkaline phosphatase as detection reagent; calibration curve
IL1Ra (Kineret/Anakinra) [4] = biological target: T6, IL1Ra (Kineret/Anakinra) (UniProt P18510 26-177); assay: western blot, hybridoma supernatant 1:2000
T6 construct: Commercial drug product; also called non-PASylated protein version
T6 sequence (P18510 26-177 limits assumed): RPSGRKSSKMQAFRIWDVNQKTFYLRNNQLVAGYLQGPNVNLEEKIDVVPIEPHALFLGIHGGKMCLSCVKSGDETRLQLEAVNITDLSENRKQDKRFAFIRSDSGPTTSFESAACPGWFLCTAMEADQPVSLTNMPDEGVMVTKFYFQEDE

P/A #1 sequence = biological target: T2, P/A #1 sequence; assay: SPOT peptide array / hybridoma screening
hu4D5-PAS #1(200) [5] = biological target: T4, hu4D5-PAS #1(200); assay: MAb capture ELISA: MAb from hybridoma supernatant captured by anti-mouse IgG Fc, hu4D5-PAS#1(200) titrated (x axis: antigen concentration)
P/A #1(200)-IL1Ra [6] = biological target: T3, P/A #1(200)-IL1Ra; assay: Western blot of the fusion protein after SDS-PAGE; anti-mouse IgG Fc-AP, BCIP/NBT [F]
[7] = biological target: T7, anti-Galectin-PAS(200) Fab fragment; assay: SPR, MAb 1.1 covalently coupled to a CM5 chip, PASylated anti-Galectin Fab injected
T7 construct: also called PASylated humanized anti-Galectin Fab fragment; PAS-Fab
T7 sequence (chain, as listed by the source): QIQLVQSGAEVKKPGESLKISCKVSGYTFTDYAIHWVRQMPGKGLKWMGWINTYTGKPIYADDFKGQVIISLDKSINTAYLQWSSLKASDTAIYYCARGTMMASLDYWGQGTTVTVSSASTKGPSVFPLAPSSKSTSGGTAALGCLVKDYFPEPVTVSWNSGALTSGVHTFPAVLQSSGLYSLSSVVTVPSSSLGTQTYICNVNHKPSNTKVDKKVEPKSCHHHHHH

hu4D5-P/A #1(200) [8] = biological target: T8, hu4D5-P/A #1(200); assay: MAb capture ELISA: MAb from hybridoma supernatant captured by anti-mouse IgG Fc, hu4D5-P/A#1(200) titrated (x axis: antigen concentration)
T8 construct: Detected with anti-human kappa light chain antibody in the capture ELISA

hu4D5-P/A #1(200) [9] = biological target: T8, hu4D5-P/A #1(200); assay: MAb capture ELISA, hybridoma supernatant on anti-mouse IgG Fc, antigen titrated
P/A #1(200)-IL1Ra [10] = biological target: T3, P/A #1(200)-IL1Ra; assay: SPR, MAb from hybridoma supernatant captured by anti-mouse antibody, antigen as analyte, bivalent analyte model
IL1Ra (Kineret/Anakinra) [11] = biological target: T6, IL1Ra (Kineret/Anakinra); assay: western blot, hybridoma supernatant 1:2000 or purified MAb 1:200000

Row | Kd (hu4D5-PAS #1(200) [2]) [nM] | Kd (PAS #1(200)-IL1Ra) [nM] | binding result [3] | binding result (IL1Ra (Kineret/Anakinra) [4]) | binding result (P/A #1 sequence) | EC50 (read off the curve) (hu4D5-PAS #1(200) [5]) [nM] | binding result [7] | EC50 (read off the curve) (hu4D5-P/A #1(200) [8]) [nM] | Kd (hu4D5-P/A #1(200) [9]) [nM] | Kd (P/A #1(200)-IL1Ra [10]) [nM] | binding result (IL1Ra (Kineret/Anakinra) [11]) | Binder | binding result (P/A #1(200)-IL1Ra [1]) | binding result (P/A #1(200)-IL1Ra [6])
1 | 0.162 | 44 | binds | no binding | no binding | ~0.2 |  |  |  |  |  | Anti-PA(S) MAb 1.2 (antibody, V domains shown, Mouse monoclonal IgG from hybridoma (culture supernatant); alkaline phosphatase conjugate in the thymosin sandwich ELISA) VH: QVQLVESGGGLVQPGGSLKLSCAASGFTFSSYGMSWVRQTPDKRLELVATINSNGGSTYYLDSVKGRFTISRDKAKNTLYLQMSSLKSEDTAMYYCVRGGSIYDGYDYAMDYWGQGTSVTVSS VL: DIVLTQSPASLAVSLGQRATISCRASQSVSTSSYSYMHWFQQKPGQPPKLLIKYASNLESGVPARFSGSGSGTDFTLNIHPVEEEDTATYYCQHSWEIPLTFGAGTKLELKR | no binding (tested: hybridoma supernatant diluted 1:2000) | 
2 | 0.037 | 1 |  | no binding | no binding |  | binds |  |  |  |  | Anti-PA(S) MAb 1.1 (antibody, V domains shown, Mouse monoclonal IgG from hybridoma (culture supernatant); also called anti-PAS 1.1 MAb; DSM ACC3365) VH: QVQLKESGPGLVAPSQSLSITCTVSGFSLTGYGVNWVRQPPGKGLEWLGMIWGDGITDYNSALKSRLSISKDNSKSQVFLKMNSLQTDDTARYYCARDYYGRRYYAMDYWGQGTSVTVSS VL: DIVLTQSPASLAVSLGQRATISCRASKSVSSSGYNYMFWYQQKPGQPPKLLIYLASNLESGVPDRFWGSGSGTDFTLNIHPVEEEDAATYYCQHSRELPLTFGAGTKLELKR |  | no binding (tested: hybridoma supernatant diluted 1:2000)
3 | 0.113 | 1.7 | binds |  |  |  |  | ~0.08 | 0.17 | 0.429 | no binding | Anti-PA(S) MAb 2.1 (antibody, V domains shown, Mouse monoclonal IgG from hybridoma (supernatant or protein G purified); also called DSM ACC3366) VH: QVTLKESGPGILQPSQTLSLTCSFSGFSLSTYDMGVGWIRQPSGKGLEWLANIWWNDNKYYNSALKSRLTISKDTSNNQVFLKISSVDATDTATYYCAQMRDNYGVWFAFWGQGTLVTVSA VL: DIVMSQSPSSLAVSVGEKVTMSCKSSQSLFYSNREKNYLAWYQQKPGQSPKLLIYWASTRESGVPDRFTGSGSGTDFTLTISNVKAEDLAVYYCQQYYNYPTFGAGTKLELKR |  | 
